Assay results taken from article PMC314469, “Protein Interaction Networks by Proteome Peptide Scanning” (PLoS Biology, 2004).
Each block holds one binder with its values, some of them ahead of it.

Columns and labels:
Assay in all cases: SPOT array
[1] = biological target: T1, Yfr024 SH3 (LSB3_YEAST), P43603
T1 chain: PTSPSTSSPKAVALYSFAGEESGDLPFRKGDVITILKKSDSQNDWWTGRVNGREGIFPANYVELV

[2] = biological target: T2, Myo5 SH3 (MYO5_YEAST), Q04439
T2 chain: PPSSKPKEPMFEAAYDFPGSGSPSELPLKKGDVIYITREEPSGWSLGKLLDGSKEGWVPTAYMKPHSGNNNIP

[3] = biological target: T3, Boi1 SH3 (BOI1_YEAST), P38041
T3 chain: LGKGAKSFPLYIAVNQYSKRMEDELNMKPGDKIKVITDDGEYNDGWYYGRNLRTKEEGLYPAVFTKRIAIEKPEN

[4] = biological target: T4, Yhr016c SH3 (YSC84_YEAST), P32793
T4 chain: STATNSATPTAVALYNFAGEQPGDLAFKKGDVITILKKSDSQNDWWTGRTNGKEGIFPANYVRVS

[5] = biological target: T5, Boi2 SH3 (BOI2_YEAST), P39969
T5 chain: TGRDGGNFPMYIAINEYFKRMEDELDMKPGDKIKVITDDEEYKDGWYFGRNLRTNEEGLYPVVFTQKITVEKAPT

[6] = biological target: Sho1 SH3 (SHO1_YEAST), P40073
Sho1 SH3 (SHO1_YEAST), P40073, sequence (P40073 295-366): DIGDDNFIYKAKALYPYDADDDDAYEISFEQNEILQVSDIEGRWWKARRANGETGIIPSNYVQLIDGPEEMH

[7] = biological target: T6, Rvs167 SH3 (RV167_YEAST), P39743
T6 chain: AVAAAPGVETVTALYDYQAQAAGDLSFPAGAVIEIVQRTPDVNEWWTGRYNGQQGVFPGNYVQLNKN

B2: YDL231C 393-406 (peptide)
chain: ETSLRVLPIAPKIF
normalised SPOT signal, Boehringer light units (BLU); mean over the file's lines of this peptide [1]: 399
normalised SPOT signal, Boehringer light units (BLU); mean over the file's lines of this peptide [2]: 548
normalised SPOT signal, Boehringer light units (BLU); mean over the file's lines of this peptide [3]: 426
normalised SPOT signal, Boehringer light units (BLU); mean over the file's lines of this peptide [4]: 55.1
normalised SPOT signal, Boehringer light units (BLU); mean over the file's lines of this peptide [5]: 47.6
normalised SPOT signal, Boehringer light units (BLU); mean over the file's lines of this peptide [6]: 2880
normalised SPOT signal, Boehringer light units (BLU); mean over the file's lines of this peptide [7]: 766

B4: YFR030W 637-650 (peptide)
chain: EVENKLRPDLPVKN
normalised SPOT signal, Boehringer light units (BLU); mean over the file's lines of this peptide [1]: 1360
normalised SPOT signal, Boehringer light units (BLU); mean over the file's lines of this peptide [2]: 40.7
normalised SPOT signal, Boehringer light units (BLU); mean over the file's lines of this peptide [3]: 31.6
normalised SPOT signal, Boehringer light units (BLU); mean over the file's lines of this peptide [4]: 14.9
normalised SPOT signal, Boehringer light units (BLU); mean over the file's lines of this peptide [5]: 24.9
normalised SPOT signal, Boehringer light units (BLU); mean over the file's lines of this peptide [6]: 39.1
normalised SPOT signal, Boehringer light units (BLU); mean over the file's lines of this peptide [7]: 44.1

B5: YGL023C 22-35 (peptide)
chain: ERDGRGVPLGPRNH
normalised SPOT signal, Boehringer light units (BLU); mean over the file's lines of this peptide [1]: 643
normalised SPOT signal, Boehringer light units (BLU); mean over the file's lines of this peptide [2]: 121
normalised SPOT signal, Boehringer light units (BLU); mean over the file's lines of this peptide [3]: 370
normalised SPOT signal, Boehringer light units (BLU); mean over the file's lines of this peptide [4]: 50.2
normalised SPOT signal, Boehringer light units (BLU); mean over the file's lines of this peptide [5]: 25
normalised SPOT signal, Boehringer light units (BLU); mean over the file's lines of this peptide [6]: 38
normalised SPOT signal, Boehringer light units (BLU); mean over the file's lines of this peptide [7]: 35.7

B6: YDR023W 429-442 (peptide)
chain: EVLRKYIPGEPEFL
normalised SPOT signal, Boehringer light units (BLU); mean over the file's lines of this peptide [1]: 0
normalised SPOT signal, Boehringer light units (BLU); mean over the file's lines of this peptide [2]: 169
normalised SPOT signal, Boehringer light units (BLU); mean over the file's lines of this peptide [3]: 46.4
normalised SPOT signal, Boehringer light units (BLU); mean over the file's lines of this peptide [4]: 10.4
normalised SPOT signal, Boehringer light units (BLU); mean over the file's lines of this peptide [5]: 0
normalised SPOT signal, Boehringer light units (BLU); mean over the file's lines of this peptide [6]: 47.5
normalised SPOT signal, Boehringer light units (BLU); mean over the file's lines of this peptide [7]: 6.9

B8: YDR402C 463-476 (peptide)
chain: EWEEKLTPAGPLSP
normalised SPOT signal, Boehringer light units (BLU); mean over the file's lines of this peptide [1]: 80.9
normalised SPOT signal, Boehringer light units (BLU); mean over the file's lines of this peptide [2]: 297
normalised SPOT signal, Boehringer light units (BLU); mean over the file's lines of this peptide [3]: 65.4
normalised SPOT signal, Boehringer light units (BLU); mean over the file's lines of this peptide [4]: 32.1
normalised SPOT signal, Boehringer light units (BLU); mean over the file's lines of this peptide [5]: 13.1
normalised SPOT signal, Boehringer light units (BLU); mean over the file's lines of this peptide [6]: 38.2
normalised SPOT signal, Boehringer light units (BLU); mean over the file's lines of this peptide [7]: 46.8

B10: YKR103W 236-249 (peptide)
chain: ENENKKLPPAPTVF
normalised SPOT signal, Boehringer light units (BLU); mean over the file's lines of this peptide [1]: 16.2
normalised SPOT signal, Boehringer light units (BLU); mean over the file's lines of this peptide [2]: 67.7
normalised SPOT signal, Boehringer light units (BLU); mean over the file's lines of this peptide [3]: 50.9
normalised SPOT signal, Boehringer light units (BLU); mean over the file's lines of this peptide [4]: 24.6
normalised SPOT signal, Boehringer light units (BLU); mean over the file's lines of this peptide [5]: 12.9
normalised SPOT signal, Boehringer light units (BLU); mean over the file's lines of this peptide [6]: 3520
normalised SPOT signal, Boehringer light units (BLU); mean over the file's lines of this peptide [7]: 22

B11: YJR092W 847-860 (peptide)
chain: FEEDKMTPSTPVRS
normalised SPOT signal, Boehringer light units (BLU); mean over the file's lines of this peptide [1]: 11100
normalised SPOT signal, Boehringer light units (BLU); mean over the file's lines of this peptide [2]: 248
normalised SPOT signal, Boehringer light units (BLU); mean over the file's lines of this peptide [3]: 12
normalised SPOT signal, Boehringer light units (BLU); mean over the file's lines of this peptide [4]: 3920
normalised SPOT signal, Boehringer light units (BLU); mean over the file's lines of this peptide [5]: 7.9
normalised SPOT signal, Boehringer light units (BLU); mean over the file's lines of this peptide [6]: 65
normalised SPOT signal, Boehringer light units (BLU); mean over the file's lines of this peptide [7]: 59.7

B12: YKL171W 669-682 (peptide)
chain: FENRKHQPFTPKGM
normalised SPOT signal, Boehringer light units (BLU); mean over the file's lines of this peptide [1]: 574
normalised SPOT signal, Boehringer light units (BLU); mean over the file's lines of this peptide [2]: 211
normalised SPOT signal, Boehringer light units (BLU); mean over the file's lines of this peptide [3]: 616
normalised SPOT signal, Boehringer light units (BLU); mean over the file's lines of this peptide [4]: 33.1
normalised SPOT signal, Boehringer light units (BLU); mean over the file's lines of this peptide [5]: 0.7
normalised SPOT signal, Boehringer light units (BLU); mean over the file's lines of this peptide [6]: 126
normalised SPOT signal, Boehringer light units (BLU); mean over the file's lines of this peptide [7]: 148

B13: YNL277W 122-135 (peptide)
chain: ETGVRYGPEFPLST
normalised SPOT signal, Boehringer light units (BLU); mean over the file's lines of this peptide [1]: 7.2
normalised SPOT signal, Boehringer light units (BLU); mean over the file's lines of this peptide [2]: 96.2
normalised SPOT signal, Boehringer light units (BLU); mean over the file's lines of this peptide [3]: 93.9
normalised SPOT signal, Boehringer light units (BLU); mean over the file's lines of this peptide [4]: 40.6
normalised SPOT signal, Boehringer light units (BLU); mean over the file's lines of this peptide [5]: 23.4
normalised SPOT signal, Boehringer light units (BLU); mean over the file's lines of this peptide [6]: 23.1
normalised SPOT signal, Boehringer light units (BLU); mean over the file's lines of this peptide [7]: 11.9

B14: YDR124W 275-288 (peptide)
chain: EYFPREYPKDPVSE
normalised SPOT signal, Boehringer light units (BLU); mean over the file's lines of this peptide [1]: 93.1
normalised SPOT signal, Boehringer light units (BLU); mean over the file's lines of this peptide [2]: 272
normalised SPOT signal, Boehringer light units (BLU); mean over the file's lines of this peptide [3]: 456
normalised SPOT signal, Boehringer light units (BLU); mean over the file's lines of this peptide [4]: 22.8
normalised SPOT signal, Boehringer light units (BLU); mean over the file's lines of this peptide [5]: 5.6
normalised SPOT signal, Boehringer light units (BLU); mean over the file's lines of this peptide [6]: 31.2
normalised SPOT signal, Boehringer light units (BLU); mean over the file's lines of this peptide [7]: 104

B15: YJR092W 117-130 (peptide)
chain: ELDTKTIPELPFSM
normalised SPOT signal, Boehringer light units (BLU); mean over the file's lines of this peptide [1]: 27.4
normalised SPOT signal, Boehringer light units (BLU); mean over the file's lines of this peptide [2]: 53.2
normalised SPOT signal, Boehringer light units (BLU); mean over the file's lines of this peptide [3]: -0
normalised SPOT signal, Boehringer light units (BLU); mean over the file's lines of this peptide [4]: 12.8
normalised SPOT signal, Boehringer light units (BLU); mean over the file's lines of this peptide [5]: 24.8
normalised SPOT signal, Boehringer light units (BLU); mean over the file's lines of this peptide [6]: 44.1
normalised SPOT signal, Boehringer light units (BLU); mean over the file's lines of this peptide [7]: 98.8

Now from value to binder:

normalised SPOT signal, Boehringer light units (BLU); mean over the file's lines of this peptide [1]: 30.2
normalised SPOT signal, Boehringer light units (BLU); mean over the file's lines of this peptide [2]: 256
normalised SPOT signal, Boehringer light units (BLU); mean over the file's lines of this peptide [3]: 116
normalised SPOT signal, Boehringer light units (BLU); mean over the file's lines of this peptide [4]: 2.5
normalised SPOT signal, Boehringer light units (BLU); mean over the file's lines of this peptide [5]: 13.2
normalised SPOT signal, Boehringer light units (BLU); mean over the file's lines of this peptide [6]: 436
normalised SPOT signal, Boehringer light units (BLU); mean over the file's lines of this peptide [7]: 28.5
B1: YOR042W 368-381 (peptide)
chain: ETKKKWQPLPPEPL

normalised SPOT signal, Boehringer light units (BLU); mean over the file's lines of this peptide [1]: 74.4
normalised SPOT signal, Boehringer light units (BLU); mean over the file's lines of this peptide [2]: 188
normalised SPOT signal, Boehringer light units (BLU); mean over the file's lines of this peptide [3]: 96
normalised SPOT signal, Boehringer light units (BLU); mean over the file's lines of this peptide [4]: 116
normalised SPOT signal, Boehringer light units (BLU); mean over the file's lines of this peptide [5]: 21.7
normalised SPOT signal, Boehringer light units (BLU); mean over the file's lines of this peptide [6]: 76
normalised SPOT signal, Boehringer light units (BLU); mean over the file's lines of this peptide [7]: 40
B3: YPR101W 28-41 (peptide)
chain: FANIKREPVHPEIR

normalised SPOT signal, Boehringer light units (BLU); mean over the file's lines of this peptide [1]: 108
normalised SPOT signal, Boehringer light units (BLU); mean over the file's lines of this peptide [2]: 178
normalised SPOT signal, Boehringer light units (BLU); mean over the file's lines of this peptide [3]: 85
normalised SPOT signal, Boehringer light units (BLU); mean over the file's lines of this peptide [4]: 71.1
normalised SPOT signal, Boehringer light units (BLU); mean over the file's lines of this peptide [5]: 43.2
normalised SPOT signal, Boehringer light units (BLU); mean over the file's lines of this peptide [6]: 1020
normalised SPOT signal, Boehringer light units (BLU); mean over the file's lines of this peptide [7]: 167
B7: YPL207W 797-810 (peptide)
chain: ETTTRETPLPPIPA

normalised SPOT signal, Boehringer light units (BLU); mean over the file's lines of this peptide [1]: 930
normalised SPOT signal, Boehringer light units (BLU); mean over the file's lines of this peptide [2]: 171
normalised SPOT signal, Boehringer light units (BLU); mean over the file's lines of this peptide [3]: 87.9
normalised SPOT signal, Boehringer light units (BLU); mean over the file's lines of this peptide [4]: 42.2
normalised SPOT signal, Boehringer light units (BLU); mean over the file's lines of this peptide [5]: 17.3
normalised SPOT signal, Boehringer light units (BLU); mean over the file's lines of this peptide [6]: 76.5
normalised SPOT signal, Boehringer light units (BLU); mean over the file's lines of this peptide [7]: 188
B9: YPL074W 331-344 (peptide)
chain: ELQIRYKPTPPLKK

normalised SPOT signal, Boehringer light units (BLU); mean over the file's lines of this peptide [1]: 264
normalised SPOT signal, Boehringer light units (BLU); mean over the file's lines of this peptide [2]: 359
normalised SPOT signal, Boehringer light units (BLU); mean over the file's lines of this peptide [3]: 60.7
normalised SPOT signal, Boehringer light units (BLU); mean over the file's lines of this peptide [4]: 40.9
normalised SPOT signal, Boehringer light units (BLU); mean over the file's lines of this peptide [5]: 269
normalised SPOT signal, Boehringer light units (BLU); mean over the file's lines of this peptide [6]: 12.3
normalised SPOT signal, Boehringer light units (BLU); mean over the file's lines of this peptide [7]: 585
B16: YPR144C 134-147 (peptide)
chain: FASEKGAPFFPNKT
